# Source: IntAct's records for PubMed 22653727
# B1: Circadian locomoter output cycles protein kaput (Mus musculus), O08785 (parent)
# chain: MVFTVSCSKMSSIVDRDDSSIFDGLVEEDDKDKAKRVSRNKSEKKRRDQFNVLIKELGSMLPGNARKMDKSTVLQKSIDFLRKHKETTAQSDASEIRQDWKPTFLSNEEFTQLMLEALDGFFLAIMTDGSIIYVSESVTSLLEHLPSDLVDQSIFNFIPEGEHSEVYKILSTHLLESDSLTPEYLKSKNQLEFCCHMLRGTIDPKEPSTYEYVRFIGNFKSLTSVSTSTHNGFEGTIQRTHRPSYEDRVCFVATVRLATPQFIKEMCTVEEPNEEFTSRHSLEWKFLFLDHRAPPIIGYLPFEVLGTSGYDYYHVDDLENLAKCHEHLMQYGKGKSCYYRFLTKGQQWIWLQTHYYITYHQWNSRPEFIVCTHTVVSYAEVRAERRRELGIEESLPETAADKSQDSGSDNRINTVSLKEALERFDHSPTPSASSRSSRKSSHTAVSDPSSTPTKIPTDTSTPPRQHLPAHEKMTQRRSSFSSQSINSQSVGPSLTQPAMSQAANLPIPQGMSQFQFSAQLGAMQHLKDQLEQRTRMIEANIHRQQEELRKIQEQLQMVHGQGLQMFLQQSNPGLNFGSVQLSSGNSNIQQLTPVNMQGQVVPANQVQSGHISTGQHMIQQQTLQSTSTQQSQQSVMSGHSQQTSLPSQTPSTLTAPLYNTMVISQPAAGSMVQIPSSMPQNSTQSATVTTFTQDRQIRFSQGQQLVTKLVTAPVACGAVMVPSTMLMGQVVTAYPTFATQQQQAQTLSVTQQQQQQQQQPPQQQQQQQQSSQEQQLPSVQQPAQAQLGQPPQQFLQTSRLLHGNPSTQLILSAAFPLQQSTFPPSHHQQHQPQQQQQLPRHRTDSLTDPSKVQPQ
# What was measured:
# Settings in all cases: with Bmal1, Q9WTL8-4
# Chain of Bmal1, Q9WTL8-4 (Q9WTL8 other isoform, or with tags, fused parts or gaps): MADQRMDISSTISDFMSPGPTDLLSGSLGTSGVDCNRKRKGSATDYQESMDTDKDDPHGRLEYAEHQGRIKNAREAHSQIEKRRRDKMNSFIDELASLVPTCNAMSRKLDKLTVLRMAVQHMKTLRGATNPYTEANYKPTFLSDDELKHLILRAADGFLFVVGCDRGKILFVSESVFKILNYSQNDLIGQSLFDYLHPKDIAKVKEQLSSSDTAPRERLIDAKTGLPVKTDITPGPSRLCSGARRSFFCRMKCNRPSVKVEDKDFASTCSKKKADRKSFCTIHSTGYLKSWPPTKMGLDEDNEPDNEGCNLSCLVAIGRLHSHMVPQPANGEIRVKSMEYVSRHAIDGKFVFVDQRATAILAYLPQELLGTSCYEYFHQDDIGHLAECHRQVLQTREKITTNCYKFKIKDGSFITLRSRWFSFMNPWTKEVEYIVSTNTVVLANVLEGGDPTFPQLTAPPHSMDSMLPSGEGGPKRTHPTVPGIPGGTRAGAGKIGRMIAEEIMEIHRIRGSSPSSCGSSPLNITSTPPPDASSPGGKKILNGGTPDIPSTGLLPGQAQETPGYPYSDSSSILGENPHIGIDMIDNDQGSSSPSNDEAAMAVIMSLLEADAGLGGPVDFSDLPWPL
# Bmal1, Q9WTL8-4 [1] = variants of: B1
# Bmal1, Q9WTL8-4 [2] = variants of: B1; remark: listed apart in the source
# Bmal1, Q9WTL8-4 [3] = variants of: B1; remark: listed apart in the source
"effect of a mutation on the interaction (Bmal1, Q9WTL8-4 [1])","effect of a mutation on the interaction (Bmal1, Q9WTL8-4 [2])","effect of a mutation on the interaction (Bmal1, Q9WTL8-4 [3])",Variant
disrupting interaction strength,,decreasing interaction strength,W284A
disrupting interaction strength,decreasing interaction strength,,L74E

# Further lines, the variant ahead of its results:
Variant,"effect of a mutation on the interaction (Bmal1, Q9WTL8-4 [1])","effect of a mutation on the interaction (Bmal1, Q9WTL8-4 [2])","effect of a mutation on the interaction (Bmal1, Q9WTL8-4 [3])"
L57E;L113E;W284A,disrupting interaction strength,disrupting interaction strength,
L57E,with no effect,decreasing interaction strength,
V315R,with no effect,decreasing interaction strength,
L113E,with no effect,,
F122D,with no effect,,
